Binding data for two sequences are collected here from PMC3591269.

The series concerns the target MINI3 (WRKY10) (Arabidopsis) (UniProt Q9LG05). The series is described as follows: competition. The note with it: 25 mM Hepes-KOH pH 7.2, 40 mM KCl, 1 mM DTT, 1 mM EDTA, 10% glycerol, 0.01 uM ZnCl2, 2 ug poly-dIdC, 3 ng probe, 1 ug protein in 20 ul; room temperature ….

Chain of MINI3 (WRKY10) (Arabidopsis) (Q9LG05 whole entry): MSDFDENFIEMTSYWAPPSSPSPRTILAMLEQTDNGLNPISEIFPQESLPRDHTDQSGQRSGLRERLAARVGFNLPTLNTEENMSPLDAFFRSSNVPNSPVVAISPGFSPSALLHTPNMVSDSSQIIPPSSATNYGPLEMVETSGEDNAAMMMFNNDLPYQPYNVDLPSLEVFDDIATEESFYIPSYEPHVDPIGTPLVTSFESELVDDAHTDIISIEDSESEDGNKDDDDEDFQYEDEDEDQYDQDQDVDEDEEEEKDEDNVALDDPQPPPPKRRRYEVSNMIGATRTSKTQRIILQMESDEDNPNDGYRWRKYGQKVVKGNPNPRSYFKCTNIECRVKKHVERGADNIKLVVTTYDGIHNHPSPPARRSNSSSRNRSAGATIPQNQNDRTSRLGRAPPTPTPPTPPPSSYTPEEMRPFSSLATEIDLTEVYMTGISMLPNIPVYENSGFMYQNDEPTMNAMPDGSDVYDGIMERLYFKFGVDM

“GACATTACTGTCATCGTATATGAAACATTATTCTAATAATTGTTATAAAAATACCGGAGTTAAACTAGATTGATTATCACCGAGATTTTATATTTGTCAAGATATATAGATGGTCCATCGAAAGGATTGGTGCTTCCAAAACCTTCGATGTCACCTCCTGA (double strand) [W3-box fragment (MINI3 promoter)]”: the binding entry is reported as “binds”.
The value for “GACATTACTGTCATCGTATATGAAACATTATTCTAATAATTGTTATAAAAATACCGGAGTTAAACTAGATTGATTATCACCGAGATTTTATATTTGTCTAGATATATAGATGGTCCATCGAAAGGATTGGTGCTTCCAAAACCTTCGATGTCACCTCCTGA (double strand) [mW3-box fragment]” was “binds”.
